Assay [1] has as its system prostaglandin F2α receptor (FP). Nature of the assay: [3H]PGF2α binding in COS cells co-transfected with FP and an FPRP variant construct. Conditions: 3.5 μg FP cDNA construct and 5 μg test cDNA construct.
Assay [2] addresses prostaglandin F2α receptor (FP), cDNA construct whose species the place does not tell.
Assay [3] shares this target. This is another data set of the same source.

B1: rat prostaglandin F2α receptor regulatory protein (FPRP) (protein)
chain: RVVRVPAGTLVRVVGTELVIPCNVSDYDGPSEQNFDWSFSSSGSSFVELASTWEVGFPAQQYRERLQRGDILLRRTANDAVELHIKNVQPSDQGHYKCSTPSTDATVQGNYEDTMQVKVLADALVVGPSSRPPPGLSLREGEPFELRCIASTTSPLHTHLALRWELHRGPVHRSILALSHEGRFHPGPGYEQRYHSGDVRLDTVGSDAYRLSVARALSADQGSYRCVVSEWITEQGSWQEIQEKAVEVATVVIQPTALQLAVPRTVSVTEGKDLDLSCNITTDRVDDVRPEVTWYFKKTPDTSLLASHMLARLDRDSLVHSSPHVALSHVDTRSYHLLVRDVSKENSGYYLCLVALWAPGHNRSWHKVAEAMSAPSGVSVTWLEPEYQVYLNASKVPGFSDDPTELQCRVIDTKRVDAGVRLTVSWYYRMNRRNDDVVASELLAVMDGDWTLRYGERSKQRAQDGEFIFSKEHTDTFSFRIQRTTEEDRGSYYCVVSAWTRQRNSSWVKSKDVFSKPVNIFWASEDSVLVVKARQPKPFFAAGNTFEMTCKVSSKNIKSPRYSVLITAEKPVGDLSSPNETKYIISLDQDSVVKLENWTDASRVDGVVLEKVQEDEFRYRMYQTQVSDAGLYRCMVTAWSPIGGSLWREAATSLSNPIEIDFQTSGPIFNASVHSDTLSVTRGDLIKLFCIVTVDGAVLDPDDMAFDVSWFAVHSFGLDKAPILLSSLDRKGVVTTGQRDWKSTVSLERVSVLEFLLQVHGSEDQDFGNYYCSVTPWVRSPTGSWQREAEIHSRPIFITVKMDVLNAFKYPLLIGVGLSTVIRLLSCLIGYCSSHWCCKKEVRETRRERRRLMSMEMD
In the case of B1, the “inhibitory activity of FPRP variant on [^3 H]PGF2α binding” value in assay [1] was “may be slightly more active at lower concentrations but does not inhibit quite as well as native FPRP (construct 232) at high concentrations”. In assay [2], this molecule yielded a % control ^3 H!PGF2α binding, co-culture of FPRP transfected cells with FP transfected cells 1:1 of 120 % control and a % control ^3 H!PGF2α binding, conditioned media from FPRP transfected cells on FP transfected cells of 103 % control. The molecule also yielded an inhibition of ^3 H!PGF2α binding, saturation binding experiment in assay [3] of 60%.

The values are drawn from patent publication US5747660A, “Nucleic acid encoding prostaglandin F2α receptor regulatory protein” (priority 1995, dated 1998).
